Results on one substance are retold here after paper PMC10726570.

Test [1] deals with human neonatal Fc receptor (human-FcRn) (human) (UniProt P55899).
Test [2] has the same target. The test is described as follows: SPR; format and conditions not told in the text (who was immobilised, pH, buffer); shown in Fig. S1B-C. In general terms: Surface plasmon resonance follows binding to a sensor surface in real time, without labels.
In test [3] the target is monkey neonatal Fc receptor (monkey-FcRn) (monkey) (UniProt Q8SPV9). The description is as above.

In test [1], “PAT101, recombinant human albumin (rHA)-conjugated Aspergillus flavus urate oxidase (from UniProt Q00511 1-302; P02768 25-609) (complex)” yielded a plasma half-life T1/2 (uricase activity) after a single i.v. dose in TG mice expressing human FcRn of 95 h. Besides, the Kd – broadly, the free concentration of one partner at which half of the binding sites on the other are occupied at equilibrium, for simple one-to-one binding – worked out at 2.94 µM in test [2] and 6.85 µM in test [3].
